Values quoted from earlier work in paper PMC3667669.
Read-outs that look alike come from different tables or passages of the source.

How the values were obtained:
Cdc42 (Homo sapiens) [1] = molecular target: Cdc42 (Homo sapiens) (UniProt P60953)
Cdc42 (Homo sapiens) [2] = molecular target: Cdc42 (Homo sapiens) (UniProt P60953); remark: listed apart in the source

Sequence of Cdc42 (Homo sapiens) (P60953 1-188): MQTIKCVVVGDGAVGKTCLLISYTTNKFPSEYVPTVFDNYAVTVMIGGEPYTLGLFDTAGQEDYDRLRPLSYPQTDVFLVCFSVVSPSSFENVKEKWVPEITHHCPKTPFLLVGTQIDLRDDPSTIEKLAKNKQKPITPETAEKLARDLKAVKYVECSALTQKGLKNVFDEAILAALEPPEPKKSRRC
Sequence of mero221-CBD CBD (P42768 201-321): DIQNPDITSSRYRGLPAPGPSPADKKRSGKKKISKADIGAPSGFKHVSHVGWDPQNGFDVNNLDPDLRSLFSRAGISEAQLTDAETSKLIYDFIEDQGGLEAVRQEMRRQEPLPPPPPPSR
Sequence of CBD fragment CBD (P42768 201-321): as above

Row | Kd (Cdc42 (Homo sapiens) [1]) [nM] | Kd (Cdc42 (Homo sapiens) [2]) [nM] | Substance
1 | 150 | – | mero221-CBD CBD (from UniProt P42768)
2 | – | 77 | CBD fragment CBD (from UniProt P42768)
